In experiment [1] the target is T1, Native proenzyme human C1s (Comptech A103) (human, UniProt P09871 16-688).
T1 construct: mature; Bought native protein; also called native human C1s Proenzyme; native human C1s proenzyme protein (CompTech)
T1 sequence (looked up): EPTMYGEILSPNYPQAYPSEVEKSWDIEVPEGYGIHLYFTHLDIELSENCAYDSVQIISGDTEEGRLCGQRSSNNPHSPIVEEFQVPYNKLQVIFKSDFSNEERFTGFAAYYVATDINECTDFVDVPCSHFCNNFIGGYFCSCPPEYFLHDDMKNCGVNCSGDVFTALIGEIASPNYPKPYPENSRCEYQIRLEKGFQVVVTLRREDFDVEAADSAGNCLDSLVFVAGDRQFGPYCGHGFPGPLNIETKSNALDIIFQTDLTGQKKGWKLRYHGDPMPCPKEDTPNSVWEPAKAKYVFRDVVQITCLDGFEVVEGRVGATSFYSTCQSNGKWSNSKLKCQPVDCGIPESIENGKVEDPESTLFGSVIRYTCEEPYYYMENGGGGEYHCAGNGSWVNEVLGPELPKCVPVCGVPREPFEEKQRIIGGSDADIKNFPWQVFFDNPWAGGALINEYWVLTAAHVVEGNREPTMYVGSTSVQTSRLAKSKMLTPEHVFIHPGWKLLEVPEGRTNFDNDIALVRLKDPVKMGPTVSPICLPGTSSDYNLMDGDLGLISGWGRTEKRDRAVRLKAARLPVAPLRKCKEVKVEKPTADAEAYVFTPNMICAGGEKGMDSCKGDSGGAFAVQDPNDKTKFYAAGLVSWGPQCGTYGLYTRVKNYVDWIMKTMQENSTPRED
Kind of experiment: SPR (BIACORE T200, 37 degrees C, pH 7.4), antibody captured by protein A/G, C1s 50 nM. The protocol:
The binding specificities of the six C1s CUB1-EGF-CUB2 binders were determined at 37 degrees C. using BIACORE® T200 instrument (GE Healthcare). Recombinant Protein A/G (Pierce) was immobilized onto all flow cells of a CM4 sensor chip using an amine coupling kit (GE Healthcare). Antibodies and analytes were prepared in 7(+) buffer (20 mM ACES, 150 mM NaCl, 1.2 mM CaCl₂, 0.05% Tween 20, 0.005% NaN₃, pH 7.4). Each antibody was captured onto the sensor surface by protein A/G. Antibody capture levels were aimed at 100 resonance unit (RU). Native proenzyme human C1s (Comptech A103) (at 50 nM as a monomer) or recombinant human C1s CCP1-CCP2-SP-His (at 100 nM as a monomer) was injected, followed by dissociation. Sensor surface was regenerated each cycle with 10 mM Glycine-HCl pH 1.5. The six C1s CUB1-EGF-CUB2 binders bound to the native proenzyme human C1s, but not recombinant human C1s CCP1-CCP2-SP-His, which is a truncated protein lacking the CUB1-EGF-CUB2 domain.

In experiment [2] the target is T2, recombinant human C1s CCP1-CCP2-SP-His (human, UniProt P09871 292-688).
T2 construct: Truncated protein lacking the CUB1-EGF-CUB2 domain; also called human C1s CCP1-CCP2-SP M292-D688
T2 sequence: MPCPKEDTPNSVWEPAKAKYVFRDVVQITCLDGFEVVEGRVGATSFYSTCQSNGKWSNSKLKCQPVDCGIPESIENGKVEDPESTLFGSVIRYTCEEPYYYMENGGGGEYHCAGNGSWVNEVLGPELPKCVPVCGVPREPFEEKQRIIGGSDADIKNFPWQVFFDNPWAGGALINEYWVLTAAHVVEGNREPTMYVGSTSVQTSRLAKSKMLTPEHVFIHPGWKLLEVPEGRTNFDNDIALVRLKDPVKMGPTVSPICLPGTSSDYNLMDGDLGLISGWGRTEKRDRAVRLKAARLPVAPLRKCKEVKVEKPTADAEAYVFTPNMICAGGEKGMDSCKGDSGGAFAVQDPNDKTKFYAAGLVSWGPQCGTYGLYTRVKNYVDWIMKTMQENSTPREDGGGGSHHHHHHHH
Kind of experiment: SPR (BIACORE T200, 37 degrees C, pH 7.4, 1.2 mM CaCl2), antibody captured by protein A/G.

B1: COS0583gg-SG1148 (antibody, human IgG1, kappa, V domains shown)
VH: QSLEESGGRLVTPGTPLTLTCTVSGIDLSSYAMIWVRQAPGKGLEWIGIIYVRGSTYYASWAKDRFTISKTSTTVDLKITSPTTEDTATYFCARAYGGDTFSDGFDPWGPGTLVTVSS
VL: DPVMTQTPSSTSAAVGGTVTINCQSSQNVYGNNRLAWYQQKPGQPPKLLIYLASTLASGVPSRFRGNGSGTQFTLTISGVQCDDAATYYCAGGYRDDTNSFGGGTKVEIKR
notes: Constant regions as for m1; also called COS583; COS583gg(-SG1148)
As to B1, the binding result in experiment [1] was “binds”; in experiment [2], “no binding (tested: 100 nM)”.

For the origin of these results see US20210198347A1 (Chugai, published 2021).
